Laboratory results taken from patent US20240182594A1.

Target: human OX40 (human) (UniProt P43489)
Test: cell-based or functional assay

Sequence of UniProt P43489 (P43489 29-277): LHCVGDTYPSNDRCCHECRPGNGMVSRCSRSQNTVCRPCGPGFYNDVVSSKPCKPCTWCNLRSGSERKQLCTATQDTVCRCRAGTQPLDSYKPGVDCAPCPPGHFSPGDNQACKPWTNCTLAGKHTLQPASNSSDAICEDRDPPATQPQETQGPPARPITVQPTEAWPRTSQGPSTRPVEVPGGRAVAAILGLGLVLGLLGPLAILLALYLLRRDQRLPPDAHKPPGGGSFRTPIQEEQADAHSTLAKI

With “soluble OX40 ligand (BPS Biosciences, Catalog #71185) (from UniProt P23510 51-183)” the EC50 for T cell costimulation (proliferation of activated CD4+ Teff cells, CellTiter-Glo) was 14 µg/mL.
